Laboratory results published in article PMC8646042.

Biological target: T1, endogenous IRF3 (human (endogenous in 293T)), Q14653
T1 chain: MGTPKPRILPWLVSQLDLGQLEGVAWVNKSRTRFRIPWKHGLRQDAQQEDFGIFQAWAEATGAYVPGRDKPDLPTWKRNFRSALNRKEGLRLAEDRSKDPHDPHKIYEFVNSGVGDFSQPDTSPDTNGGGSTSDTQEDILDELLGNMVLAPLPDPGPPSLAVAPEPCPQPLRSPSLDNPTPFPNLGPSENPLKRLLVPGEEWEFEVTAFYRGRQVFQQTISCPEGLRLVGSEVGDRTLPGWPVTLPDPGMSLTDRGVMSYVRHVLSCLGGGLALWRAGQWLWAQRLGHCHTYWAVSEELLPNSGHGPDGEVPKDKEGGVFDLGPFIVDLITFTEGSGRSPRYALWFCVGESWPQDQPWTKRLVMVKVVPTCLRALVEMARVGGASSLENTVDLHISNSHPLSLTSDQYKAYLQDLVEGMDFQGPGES
Experiment: native gel or EMSA; Native PAGE of lysates of 293T or MCF7 cells and western blot with anti-IRF3; SeV infection for 12 h or MAVS transfection; N4BP3 overexpressed, knocked down or knocked out
Conditions: remark: other sources report otherwise

B1: endogenous IRF3, Q14653 1-427 (natural protein)
chain: T1 chain
stoichiometry N: 2
